Measured values taken from patent publication US20240270821A1, “GIP/GLP1/GCG TRI-RECEPTOR AGONISTS AND USES THEREOF” (priority 2023, published 2024).
Changes are numbered by the printed parent chain. Each block holds one molecule with its values, some of them ahead of it. Starred links: 1 amine or outer side, 2 acyl side, 3 side chain; linkers in the order of their positions; H or OH if unused. Non-standard residues stand in square brackets, D forms with d. Groups on a side chain read outwards from the residue. No end group written: not given here. *: point of attachment. C20 diacid = O=C(O)CCCCCCCCCCCCCCCCCCC(=O)*; C18 diacid = O=C(O)CCCCCCCCCCCCCCCCC(=O)*; αMePhe(2-F) = C[C@](N)(Cc1ccccc1F)C(=O)O; γGlu = O=C(O)[C@H](CCC(=O)[*:2])N[*:1]; αMeF = C[C@](N)(Cc1ccccc1)C(=O)O; αMeL = CC(C)C[C@](C)(N)C(=O)O; Orn = NCCC[C@H](N)C(=O)O; AEEA = NCCOCCOCC(=O)O; Aib = CC(C)(N)C(=O)O

Columns and labels:
hGLP-1R [1] = biological target: T1, hGLP-1R (Homo sapiens, UniProt P43220); assay: GLP-1R CHO cell β-arrestin recruitment assay; type: cell-based; design: host or cells: CHO-K1 (PathHunter, assay-ready frozen cells); settings: for EC50: CHO-K1 PathHunter, β-arrestin-2, 0.1% casein, read-out: hGLP1R β-arrestin Rel EC50; for % Stimulation Max: normalized to GLP-1(7-36) as maximum control;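 as to all read-outs here: luminescence read after 90 min peptide exposure at 37 °C and a further 60 min with detection reagent at room temperature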
Target sequence in this assay (P43220 24-463): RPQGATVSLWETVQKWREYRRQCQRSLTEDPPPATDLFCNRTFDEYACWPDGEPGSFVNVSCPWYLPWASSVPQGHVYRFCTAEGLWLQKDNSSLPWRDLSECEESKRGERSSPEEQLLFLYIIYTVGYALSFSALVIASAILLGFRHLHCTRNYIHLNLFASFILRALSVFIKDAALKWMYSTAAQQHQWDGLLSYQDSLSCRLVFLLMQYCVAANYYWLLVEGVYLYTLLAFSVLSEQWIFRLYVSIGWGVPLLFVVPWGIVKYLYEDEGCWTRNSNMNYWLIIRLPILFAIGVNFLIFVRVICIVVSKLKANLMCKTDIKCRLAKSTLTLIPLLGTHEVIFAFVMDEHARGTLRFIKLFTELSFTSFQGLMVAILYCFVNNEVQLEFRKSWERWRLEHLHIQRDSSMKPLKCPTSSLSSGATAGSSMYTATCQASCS
Target sequence in this assay (P32121 whole entry partner): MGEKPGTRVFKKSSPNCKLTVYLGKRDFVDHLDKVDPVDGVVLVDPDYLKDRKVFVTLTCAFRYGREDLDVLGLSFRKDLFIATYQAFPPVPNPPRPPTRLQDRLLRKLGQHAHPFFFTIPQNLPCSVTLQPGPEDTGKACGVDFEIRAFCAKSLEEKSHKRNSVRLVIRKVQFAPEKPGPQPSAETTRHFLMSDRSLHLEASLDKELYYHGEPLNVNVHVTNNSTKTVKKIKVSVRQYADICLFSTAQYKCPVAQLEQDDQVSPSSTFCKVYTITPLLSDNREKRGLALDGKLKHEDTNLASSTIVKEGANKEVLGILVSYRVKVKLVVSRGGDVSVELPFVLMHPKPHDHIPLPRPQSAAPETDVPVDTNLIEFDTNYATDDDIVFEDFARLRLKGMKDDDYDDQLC

hGIPR [2] = biological target: T2, hGIPR (Homo sapiens, UniProt P48546); assay: Functional cAMP activity in the presence of 1% HSA; type: cell-based; settings: read-out: cAMP Rel EC50, hGIPR
T2 sequence (P48546 22-466): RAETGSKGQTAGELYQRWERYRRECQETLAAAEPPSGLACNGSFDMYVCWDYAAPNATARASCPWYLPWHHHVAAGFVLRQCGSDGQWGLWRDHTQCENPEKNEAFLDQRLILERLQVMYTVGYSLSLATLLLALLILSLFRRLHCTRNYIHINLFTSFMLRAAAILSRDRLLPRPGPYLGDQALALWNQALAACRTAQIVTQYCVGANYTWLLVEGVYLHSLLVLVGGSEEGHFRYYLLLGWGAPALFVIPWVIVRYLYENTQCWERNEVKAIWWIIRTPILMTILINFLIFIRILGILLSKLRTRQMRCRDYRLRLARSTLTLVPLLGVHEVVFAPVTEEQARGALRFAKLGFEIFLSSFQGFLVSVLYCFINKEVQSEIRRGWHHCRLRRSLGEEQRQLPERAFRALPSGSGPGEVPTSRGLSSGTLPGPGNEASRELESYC

hGcgR = hGcgR (Homo sapiens, UniProt P47871); assay: Functional cAMP activation in the presence of 0.1% casein (no HSA); type: cell-based; settings: in the presence of 0.1% casein (no HSA); geometric mean; read-out: Relative cAMP EC50, hGcgR;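 also: intracellular cAMP rise after 30 min at 37 °C, read by HTRF against a cAMP standard curve, scaled from buffer only (0%) to maximal control ligand response (100%)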
Sequence of hGcgR (P47871 26-477): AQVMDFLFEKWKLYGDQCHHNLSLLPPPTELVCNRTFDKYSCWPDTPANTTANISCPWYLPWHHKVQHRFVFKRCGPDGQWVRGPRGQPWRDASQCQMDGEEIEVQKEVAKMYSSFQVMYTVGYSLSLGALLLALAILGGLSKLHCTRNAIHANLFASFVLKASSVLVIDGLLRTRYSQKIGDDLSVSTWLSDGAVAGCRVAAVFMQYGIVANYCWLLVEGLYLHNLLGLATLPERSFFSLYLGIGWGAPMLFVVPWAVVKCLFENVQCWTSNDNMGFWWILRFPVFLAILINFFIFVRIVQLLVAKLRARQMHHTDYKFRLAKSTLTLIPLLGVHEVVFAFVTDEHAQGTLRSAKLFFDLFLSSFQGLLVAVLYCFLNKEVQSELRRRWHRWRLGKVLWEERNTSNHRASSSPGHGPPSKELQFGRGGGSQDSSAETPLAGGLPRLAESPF

hGIPR [3] = biological target: T2, hGIPR; assay: as above; type: cell-based; settings: in the presence of 0.1% casein (no HSA); geometric mean; read-out: Relative cAMP EC50, hGIPR
hGLP-1R [4] = biological target: T1, hGLP-1R; assay: as above; type: cell-based; settings: in the presence of 0.1% casein (no HSA); geometric mean; read-out: Relative cAMP EC50, hGLP-1R
Target sequence in this assay (P43220 24-463): as the sequence (P43220 24-463) above

hGLP-1R [5] = biological target: T1, hGLP-1R; assay: Functional cAMP activity in the presence of 1% HSA; type: cell-based; settings: read-out: cAMP Rel EC50, hGLP-1R
Target sequence in this assay (P43220 24-463): as above

human GcgR = human GcgR (Homo sapiens, UniProt P47871); assay: Functional cAMP activity in the presence of 1% HSA; type: cell-based; settings: read-out: cAMP Rel EC50, hGcgR
Sequence of human GcgR (P47871 26-477): as the sequence (P47871 26-477) above

hGLP-1R [6] = biological target: T1, hGLP-1R; assay: cell-based or functional assay
Target sequence in this assay (P43220 24-463): as the sequence (P43220 24-463) above

[7] = biological target: Pro-Link-tagged Human GLP-1R (human) (UniProt P43220); assay: cell-based or functional assay
Sequence of Pro-Link-tagged Human GLP-1R (human) (P43220 24-463): as above

[8] = biological target: T3, human GIP receptor (human) (UniProt P48546); assay: cell-based or functional assay
T3 sequence (looked up): T2 sequence (P48546 22-466)

[9] = biological target: human glucagon receptor (human) (UniProt P47871); assay: cell-based or functional assay
Sequence of human glucagon receptor (human) (P47871 26-477): as the sequence (P47871 26-477) above

[10] = biological target: human GLP1-R (SNAP-GLP-1R expressed in HEK293 cells) (human) (UniProt P43220); assay: cell-based or functional assay
Sequence of human GLP1-R (SNAP-GLP-1R expressed in HEK293 cells) (human) (P43220 24-463): as the sequence (P43220 24-463) above
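For Relative cAMP EC50, hGIPR in this document: intracellular cAMP rise after 30 min at 37 °C read by HTRF against a standard curve, scaled between buffer alone (0%) and top control ligand concentration (100%), four-parameter fit.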
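For Relative cAMP EC50, hGLP-1R in this document: intracellular cAMP rise after 30 min at 37 °C read by HTRF, normalized between buffer only (0%) and maximal control ligand (100%), four-parameter variable-slope fit.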

B1: Example 311 (peptide)
chain: Y[Aib]QGT[αMePhe(2-F)]TSDYSKILDKIAQK([AEEA-γGlu-C20 diacid])AFIEYLLEGGPSSGEPPPSEG-NH2
Relative cAMP EC50 (hGLP-1R [6]): 3.36 nM
cAMP Rel EC50 (1% HSA) (hGLP-1R [6]): 1080 nM
% Stimulation Max [7]: 39.6%
hGLP1R β-arrestin Rel EC50 [7]: 0.0192 µM
Relative cAMP EC50 [8]: 0.113 nM
cAMP Rel EC50 (1% HSA) [8]: 26.1 nM
Relative cAMP EC50 [9]: 2.08 nM
cAMP Rel EC50 (1% HSA) [9]: 2500 nM

B2: Example 315 (peptide)
chain: Y[Aib]QGTFTSDYSK[αMeL]LDKK([AEEA-γGlu-C20 diacid])AQQAFVQWLIEGGPSSGEPPPSEG-NH2
Relative cAMP EC50 (hGLP-1R [6]): 0.508 nM
cAMP Rel EC50 (1% HSA) (hGLP-1R [6]): 140 nM
% Stimulation Max [7]: 29.7%
hGLP1R β-arrestin Rel EC50 [7]: 0.00376 µM
Relative cAMP EC50 [8]: 0.398 nM
cAMP Rel EC50 (1% HSA) [8]: 85.1 nM
Relative cAMP EC50 [9]: 4.05 nM
cAMP Rel EC50 (1% HSA) [9]: 1560 nM

B4: Example 5 (peptide)
chain: YXQGTFTSDFSKXLDKKAQXAFIEYLLAGGPSSGEPPPSSE
modifications: acylated Lys, C-terminal amide, non-natural residues; synthetic construct; SITE 2: note = 2-Aminoisobutyric Acid; SITE 13: note = alpha-methyl-leucine; SITE 17: note = Lysine is chemically modified through conjugation of the epsilon-amino group of the Lysine side chain with (2-[2-(2-Amino-ethoxy)-ethoxy]-acetyl)2-(gamma-Glu)-CO-(CH2 )18-CO2H; SITE 20:
Relative cAMP EC50 (hGLP-1R [6]): 2.37 nM
cAMP Rel EC50 (in the presence of 1% HSA) (hGLP-1R [6]): 675 nM
% Stimulation Max [7]: 18.4%
hGLP1R β-arrestin Rel EC50 [7]: > 10 µM
Relative cAMP EC50 [8]: 0.177 nM
cAMP Rel EC50 (in the presence of 1% HSA) [8]: 32.5 nM
GLP1R Internalization EC50 [10]: 53.4 nM
Internalization % TOP [10]: 75%
Relative cAMP EC50 [9]: 7.4 nM
cAMP Rel EC50 (in the presence of 1% HSA) [9]: 2670 nM

B5: Example 4 (peptide)
chain: B4 chain with S40E
modifications: Aib, alpha-methyl-Leu, acylated Lys, C-terminal amide; synthetic construct; SITE 2: note = 2-Aminoisobutyric Acid; SITE 13: note = alpha-methyl-leucine; SITE 17: note = Lysine is chemically modified through conjugation of the epsilon-amino group of the Lysine side chain with (2-[2-(2-Amino-ethoxy)-ethoxy]-acetyl)-(gamma-Glu)-CO-(CH2) 18-CO2H; SITE 20: n
Relative cAMP EC50 (hGLP-1R [6]): 1.66 nM
cAMP Rel EC50 (in the presence of 1% HSA) (hGLP-1R [6]): 869 nM
% Stimulation Max [7]: 15.8%
hGLP1R β-arrestin Rel EC50 [7]: 0.0232 µM
Relative cAMP EC50 [8]: 0.192 nM
cAMP Rel EC50 (in the presence of 1% HSA) [8]: 62.3 nM
GLP1R Internalization EC50 [10]: 49.1 nM
Internalization % TOP [10]: 67.8%
Relative cAMP EC50 [9]: 3.2 nM
cAMP Rel EC50 (in the presence of 1% HSA) [9]: 1580 nM

Continued, values first:

EC50 (hGLP-1R [1]): 9.86 nM
% Stimulation Max (hGLP-1R [1]): 70.8%
EC50 (hGIPR [2]): 65.3 nM
EC50 (hGcgR): 1.68 nM
EC50 (hGIPR [3]): 0.446 nM
EC50 (hGLP-1R [4]): 0.836 nM
EC50 (hGLP-1R [5]): 209 nM
EC50 (human GcgR): 1.88 µM
Molecule: H-Y[Aib]QGT[αMeF]TSDYSILLDKIAAK([AEEA-AEEA-γGlu-C18 diacid])NFIEYLVEGGPSSGEPPPSEG-NH2 [Example 307]

EC50 (hGLP-1R [1]): 16.9 nM
% Stimulation Max (hGLP-1R [1]): 41.4%
EC50 (hGIPR [2]): 237 nM
EC50 (hGcgR): 14.2 nM
EC50 (hGLP-1R [4]): 3.15 nM
EC50 (hGLP-1R [5]): 477 nM
EC50 (human GcgR): 4.95 µM
Molecule: H-Y[Aib]QGTFTSDYSI[αMeL]LDKIAAK([AEEA-AEEA-γGlu-C20 diacid])[Orn]FVQYLIAGGPSSGEPPPSEG-NH2 [Example 308]

Relative cAMP EC50 (hGLP-1R [6]): 1.42 nM
cAMP Rel EC50 (in the presence of 1% HSA) (hGLP-1R [6]): 524 nM
% Stimulation Max [7]: 17.3%
hGLP1R β-arrestin Rel EC50 [7]: > 10 µM
Relative cAMP EC50 [8]: 0.207 nM
cAMP Rel EC50 (in the presence of 1% HSA) [8]: 73.9 nM
GLP1R Internalization EC50 [10]: 44.7 nM
Internalization % TOP [10]: 69.1%
Relative cAMP EC50 [9]: 3.72 nM
cAMP Rel EC50 (in the presence of 1% HSA) [9]: 1690 nM
B3: Example 1 (peptide)
chain: B4 chain with S40E, E41G
modifications: Aib, αMeL; acylated Lys; C-terminal amide; synthetic construct; SITE 2: note = 2-Aminoisobutyric Acid; SITE 13: note = alpha-methyl-leucine; SITE 17: note = Lysine is chemically modified through conjugation of the epsilon-amino group of the Lysine side chain with (2-[2-(2-Amino-ethoxy)-ethoxy]-acetyl)-(gamma-Glu)-CO-(CH2) 18-CO2H; SITE 20: n

Relative cAMP EC50 (hGLP-1R [6]): 1.67 nM
cAMP Rel EC50 (in the presence of 1% HSA) (hGLP-1R [6]): 546 nM
% Stimulation Max [7]: 16.5%
hGLP1R β-arrestin Rel EC50 [7]: > 10 µM
Relative cAMP EC50 [8]: 0.217 nM
cAMP Rel EC50 (in the presence of 1% HSA) [8]: 48.1 nM
GLP1R Internalization EC50 [10]: 49.2 nM
Internalization % TOP [10]: 69.7%
Relative cAMP EC50 [9]: 3.8 nM
cAMP Rel EC50 (in the presence of 1% HSA) [9]: 1590 nM
B6: Example 3 (peptide)
chain: B4 chain
modifications: Aib, αMeL; acylated Lys; C-terminal amide; synthetic construct; SITE 2: note = 2-Aminoisobutyric Acid; SITE 13: note = alpha-methyl-leucine; SITE 17: note = Lysine is chemically modified through conjugation of the epsilon-amino group of the Lysine side chain with (2-[2-(2-Amino-ethoxy)-ethoxy]-acetyl)-(gamma-Glu)-CO-(CH2) 18-CO2H; SITE 20: n
